# Reference: patent publication US20140193401A1 (published 2014)
# Where a chain is given by its changes, count along the chain named.
# B1: murine monoclonal antibody 1B7 (antibody, V domains shown)
# VH: EVQLQQSGSELVRPGASVKLSCKASGYKFTSYWMHWVKQRPGQGLEWIGNIFPGSGSTNYDEKFNSKATLTVDTSSNTAYMQLSSLTSEDSAVYYCTRWLSGAYFDYWGQGTTLTVSS
# VL: DIQMTQSPALMSASPGEKVTMTCSASSSVSFMYWYQQKPRSSPKPWIYLTSNLPSGVPARFSGSGSGTSYSLTISSMEAEDAATYYCQQWSSHPPTFGSGTKLEIKR
# notes: also called mAb 1B7; 1B7 mAb
# Legend:
# [1] = target: T1, pertussis toxin holotoxin (Bordetella pertussis, UniProt P04977 35-269; P04978 31-226; P04979 32-227; P0A3R5 43-152; P04981 36-133); test: SPR (BIAcore 3000), mAb 1B7 immobilised on CM5 chip, toxin injected
# T1 construct: also called PTx; PT
# [2] = target: T2, PTx-S1D (residues 1-220, D34E, I198V) (Bordetella pertussis, UniProt P04977 35-254); test: as above
# T2 chain: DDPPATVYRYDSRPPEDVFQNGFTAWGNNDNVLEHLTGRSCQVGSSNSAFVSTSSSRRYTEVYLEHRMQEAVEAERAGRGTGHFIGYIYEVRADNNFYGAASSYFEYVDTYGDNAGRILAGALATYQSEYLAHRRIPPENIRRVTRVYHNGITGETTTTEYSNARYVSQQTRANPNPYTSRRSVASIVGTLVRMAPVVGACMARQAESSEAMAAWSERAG
# [3] = target: T3, PTx-S1A (residues 1-220, M194I) (Bordetella pertussis, UniProt P04977 35-254); test: as above
# T3 chain: T2 chain with E34D, M194I, V198I
# [4] = target: T4, PTx-S1 9K/129G (residues 1-220, R9K, E129G) (Bordetella pertussis, UniProt P04977 35-254); test: as above
# T4 chain: T2 chain with R9K, E34D, E129G, V198I
# [5] = target: T5, PTx-S1-220 (truncated PTx-S1, residues 1-220, strain Tohama I, variant B) (Bordetella pertussis, UniProt P04977 35-254); test: as above
# T5 construct: also called WT PTx-S1-220; PTx-S1B
# T5 sequence: T2 chain with E34D, V198I
# [6] = target: T6, pertussis toxin B-oligomer (Bordetella pertussis, UniProt P04978 31-226; P04979 32-227; P0A3R5 43-152; P04981 36-133); test: as above
# [7] = target: full length PTx-S1 (1-235) protomer (Bordetella pertussis, UniProt P04977 35-269); test: as above
# [8] = target: T6, pertussis toxin B-oligomer; test: ELISA repeated with mAb 1B7; EC50 as percent of the PTx reference
# [9] = target: T7, PTx-S1-220 T156A (Bordetella pertussis, UniProt P04977 35-254); test: SPR (BIAcore 3000), mAb 1B7 immobilised on CM5 chip, toxin injected
# T7 chain: T2 chain with E34D, T156A, V198I
# [10] = target: T8, PTx-S1-220 H83A (Bordetella pertussis, UniProt P04977 35-254); test: as above
# T8 chain: T2 chain with E34D, H83A, V198I
# [11] = target: T9, PTx-S1-220 Y161A (Bordetella pertussis, UniProt P04977 35-254); test: as above
# T9 chain: T2 chain with E34D, Y161A, V198I
binder,measurement,setting,value
B1,koff,[1],0.0004 s⁻¹
same,koff,[2],0.00095 s⁻¹
same,koff,[3],0.00071 s⁻¹
same,koff,[4],0.0016 s⁻¹
same,koff,[5],0.0014 s⁻¹
same,koff,[6],0.0027 s⁻¹
same,koff,[7],0.0019 s⁻¹
same,% EC50 PTx,[8],30%
same,koff,[9],0.0011 s⁻¹
same,koff,[10],0.01 s⁻¹
same,koff,[11],0.0013 s⁻¹
